Data published in publication PMC9482650, “Quantitative fragmentomics allow affinity mapping of interactomes” (Nature Communications, 2022).
Values belong to the binder of their own block, whether it stands above or below them.

Legend:
Assay in all cases: holdup assay
Parameters in all cases: key: below the threshold = too weak to quantify, mostly under pKd 3.1 to 4
[1] = biological target: TJP2_1, Q9UDY2
[2] = biological target: GRASP, Q7Z6J2
[3] = biological target: SCRIB_2, Q14160
[4] = biological target: T1, PDZD2_2, O15018
T1 sequence (O15018 329-429, limits assumed, looked up): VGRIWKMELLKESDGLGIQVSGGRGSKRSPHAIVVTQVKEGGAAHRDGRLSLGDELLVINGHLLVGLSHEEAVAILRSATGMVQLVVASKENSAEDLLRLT

[5] = biological target: T2, MPDZ_10, O75970
T2 sequence (O75970 1624-1722, limits assumed, looked up): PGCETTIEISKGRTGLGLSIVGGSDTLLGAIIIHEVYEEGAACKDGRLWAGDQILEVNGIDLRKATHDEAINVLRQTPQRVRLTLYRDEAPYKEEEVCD

[6] = biological target: IL16_4, Q14005
[7] = biological target: T3, APBA2_1, Q99767
T3 sequence (Q99767 563-664, limits assumed, looked up): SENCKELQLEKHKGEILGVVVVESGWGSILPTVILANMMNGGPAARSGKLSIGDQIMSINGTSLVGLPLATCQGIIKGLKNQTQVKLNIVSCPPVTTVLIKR

[8] = biological target: DLG5_1, Q8TDM6
[9] = biological target: T4, LNX2_3, Q8N448
T4 sequence (Q8N448 463-564, limits assumed, looked up): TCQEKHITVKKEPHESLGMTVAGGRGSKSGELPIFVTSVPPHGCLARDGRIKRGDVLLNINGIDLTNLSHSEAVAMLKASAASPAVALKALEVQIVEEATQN

[10] = biological target: T5, MPP6, Q9NZW5
T5 sequence (Q9NZW5 125-219, limits assumed, looked up): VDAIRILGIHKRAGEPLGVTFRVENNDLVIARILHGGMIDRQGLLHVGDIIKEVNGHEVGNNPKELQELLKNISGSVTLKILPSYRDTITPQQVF

[11] = biological target: T6, DFNB31_2, Q9P202
T6 sequence (Q9P202 274-371, limits assumed, looked up): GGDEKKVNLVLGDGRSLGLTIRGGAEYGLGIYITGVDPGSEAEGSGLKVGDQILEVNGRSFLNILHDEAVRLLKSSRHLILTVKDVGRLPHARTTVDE

[12] = biological target: NHERF4_1, Q86UT5-2
[13] = biological target: LIMK2, P53671
[14] = biological target: T7, RAPGEF6, Q8TEU7
T7 sequence (Q8TEU7 525-625, limits assumed, looked up): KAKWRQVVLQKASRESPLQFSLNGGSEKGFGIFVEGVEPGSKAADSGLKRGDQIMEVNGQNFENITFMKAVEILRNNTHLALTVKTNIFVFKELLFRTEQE

[15] = biological target: TJP1_2, Q07157
[16] = biological target: T8, DVL3, Q92997
T8 sequence (Q92997 244-331, limits assumed, looked up): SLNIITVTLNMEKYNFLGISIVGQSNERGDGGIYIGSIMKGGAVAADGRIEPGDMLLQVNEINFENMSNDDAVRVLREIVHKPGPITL

[17] = biological target: SNX27, Q96L92
[18] = biological target: T9, ARHGEF11, O15085
T9 sequence (O15085 42-136, limits assumed, looked up): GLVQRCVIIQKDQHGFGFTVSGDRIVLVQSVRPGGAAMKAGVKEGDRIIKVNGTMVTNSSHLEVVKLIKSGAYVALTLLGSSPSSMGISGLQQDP

[19] = biological target: GRIP2_3, Q9C0E4
[20] = biological target: SCRIB_3, Q14160
[21] = biological target: HTRA1, Q92743
[22] = biological target: GRIP2_6, Q9C0E4
[23] = biological target: DLG1_1, Q12959
[24] = biological target: IL16_3, Q14005
[25] = biological target: T10, SNTB1, Q13884
T10 sequence (Q13884 107-205, limits assumed, looked up): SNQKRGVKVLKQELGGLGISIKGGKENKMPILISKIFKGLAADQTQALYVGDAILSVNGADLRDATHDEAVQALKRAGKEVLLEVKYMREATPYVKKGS

[26] = biological target: T11, APBA2_2, Q99767
T11 sequence (Q99767 654-744, limits assumed, looked up): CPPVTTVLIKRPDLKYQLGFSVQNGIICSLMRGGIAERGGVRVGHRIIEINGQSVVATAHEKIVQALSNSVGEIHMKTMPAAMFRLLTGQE

[27] = plain residues with an end cap or a label only (N-terminal biotin on a linker: ttds)
[28] = plain residues with an end cap or a label only (N-terminal biotin on a linker: ado-ado)

Sequence of LIMK2, P53671 (P53671 143-248): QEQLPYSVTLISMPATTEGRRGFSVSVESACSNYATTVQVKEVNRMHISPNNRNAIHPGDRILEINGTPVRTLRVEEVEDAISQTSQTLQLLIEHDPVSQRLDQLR
Sequence of GRIP2_6, Q9C0E4 (Q9C0E4 648-740): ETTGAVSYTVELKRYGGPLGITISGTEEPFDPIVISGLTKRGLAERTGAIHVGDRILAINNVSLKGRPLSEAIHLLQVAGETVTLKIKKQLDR
Sequence of TJP1_2, Q07157 (Q07157 181-274): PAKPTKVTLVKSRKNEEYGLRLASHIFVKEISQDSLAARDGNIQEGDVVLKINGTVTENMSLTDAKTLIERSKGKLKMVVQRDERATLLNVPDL
Sequence of NHERF4_1, Q86UT5-2 (Q86UT5 other isoform, or with tags, fused parts or gaps): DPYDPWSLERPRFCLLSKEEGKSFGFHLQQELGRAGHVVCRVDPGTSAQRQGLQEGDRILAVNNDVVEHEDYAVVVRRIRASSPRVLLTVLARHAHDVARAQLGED
Sequence of TJP2_1, Q9UDY2 (Q9UDY2 24-128): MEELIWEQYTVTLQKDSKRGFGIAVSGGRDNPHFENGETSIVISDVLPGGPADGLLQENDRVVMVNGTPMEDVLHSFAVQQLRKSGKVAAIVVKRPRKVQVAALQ
Sequence of IL16_4, Q14005 (Q14005 1229-1329): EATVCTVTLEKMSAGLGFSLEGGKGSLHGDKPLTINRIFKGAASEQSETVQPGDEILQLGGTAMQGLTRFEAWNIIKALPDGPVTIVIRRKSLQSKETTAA
Sequence of SCRIB_2, Q14160 (Q14160 857-960): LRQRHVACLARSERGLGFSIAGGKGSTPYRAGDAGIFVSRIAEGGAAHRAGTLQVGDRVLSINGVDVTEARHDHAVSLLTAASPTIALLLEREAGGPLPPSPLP
Sequence of HTRA1, Q92743 (Q92743 360-477): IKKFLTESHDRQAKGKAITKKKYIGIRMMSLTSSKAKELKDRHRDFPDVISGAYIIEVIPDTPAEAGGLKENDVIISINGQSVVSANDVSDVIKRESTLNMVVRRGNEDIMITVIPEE
Sequence of SCRIB_3, Q14160 (Q14160 999-1103): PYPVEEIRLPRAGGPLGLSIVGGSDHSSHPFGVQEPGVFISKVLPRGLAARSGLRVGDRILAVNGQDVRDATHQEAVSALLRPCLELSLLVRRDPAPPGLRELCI
Sequence of IL16_3, Q14005 (Q14005 1107-1207): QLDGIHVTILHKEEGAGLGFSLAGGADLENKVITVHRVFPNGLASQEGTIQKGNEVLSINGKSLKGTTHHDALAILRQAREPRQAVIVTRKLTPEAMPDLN
Sequence of DLG5_1, Q8TDM6 (Q8TDM6 617-713): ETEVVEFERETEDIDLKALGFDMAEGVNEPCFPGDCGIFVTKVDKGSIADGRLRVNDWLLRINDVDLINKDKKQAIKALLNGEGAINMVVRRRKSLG
Sequence of GRASP, Q7Z6J2 (Q7Z6J2 96-193): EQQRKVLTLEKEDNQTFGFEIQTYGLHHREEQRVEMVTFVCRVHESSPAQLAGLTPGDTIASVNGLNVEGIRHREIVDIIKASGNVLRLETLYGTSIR
Sequence of GRIP2_3, Q9C0E4 (Q9C0E4 238-339): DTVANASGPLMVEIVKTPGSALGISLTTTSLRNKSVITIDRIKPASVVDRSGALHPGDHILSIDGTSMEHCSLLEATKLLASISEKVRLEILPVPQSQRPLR

- pKd [1, 27]: 3.89
- pKd [2, 27]: 4.77
- pKd [3, 27]: 3.73
- pKd [4, 27]: 3.37
- pKd [5, 27]: 3.91
- pKd [6, 27]: 3.21
- pKd [7, 27]: below the threshold
- pKd [8, 27]: below the threshold
- pKd [9, 27]: below the threshold
- pKd [10, 27]: 3.45
- pKd [11, 27]: below the threshold
- pKd [12, 27]: 4.49
- pKd [13, 27]: below the threshold
- pKd [14, 27]: 3.49
- pKd [15, 27]: below the threshold
- pKd [16, 27]: 3.3
- pKd [17, 27]: 5.11
- pKd [18, 27]: 4.83
- pKd [19, 27]: below the threshold
- pKd [20, 27]: 4.85
- pKd [21, 27]: 4.39
- pKd [22, 27]: 3.22
- pKd [23, 27]: 3.97
- pKd [24, 27]: below the threshold
- pKd [25, 27]: 4.07
- pKd [26, 27]: below the threshold
Binder: HRTCYLVTQL [ASIC3, Q9UHC3]

- pKd [1, 28]: 3.88
- pKd [2, 28]: below the threshold
- pKd [3, 28]: below the threshold
- pKd [4, 28]: 3.76
- pKd [5, 28]: below the threshold
- pKd [6, 28]: below the threshold
- pKd [7, 28]: below the threshold
- pKd [8, 28]: below the threshold
- pKd [9, 28]: below the threshold
- pKd [10, 28]: below the threshold
- pKd [11, 28]: below the threshold
- pKd [12, 28]: 3.8
- pKd [13, 28]: below the threshold
- pKd [14, 28]: below the threshold
- pKd [15, 28]: below the threshold
- pKd [16, 28]: below the threshold
- pKd [17, 28]: below the threshold
- pKd [18, 28]: below the threshold
- pKd [19, 28]: below the threshold
- pKd [20, 28]: 4.48
- pKd [21, 28]: below the threshold
- pKd [22, 28]: below the threshold
- pKd [23, 28]: 4.39
- pKd [24, 28]: below the threshold
- pKd [25, 28]: 4.51
- pKd [26, 28]: below the threshold
Binder: RGGFGRQTQI [NCBP2L, A6PVI3]
